Numbering of substitutions follows the chain as printed. In names and notes the source's numbering stands. Bridge positions count the residues as written; N and C are the ends. Ends that are not written are not given here.
B1: L03 (IL-2Rβ-based blocking peptide) (peptide)
peptide: CEISQASHYFERHLC
modifications: bridge 1-15 (inferred); also: biotinylated, site not given here, cyclized, bridge kind not given here
notes: also called cyclized loop 2
B2: P-0757 (wild-type IL-2RαSushi monovalent Fc fusion) (Fc fusion)
chain: ELCDDDPPEIPHATFKAMAYKEGTMLNCECKRGFRRIKSGSLYMLCTGNSSHSSWDNQCQCTSSATRNTTKQVTPQPEEQKERKTTEMQSPMQPVDQASLPGHCREPPPWENEATERIYHFVVGQMVYYQCVQGYRALHRGPAESVCKMTHGKTRWTQPQLICTG
notes: also called w/t IL-2Rα; not shown: Fc chain fused to the Sushi domain, its linker and orientation, and the partner Fc chain of the monovalent heterodimer
B3: P-0751 (IL-2RαSushi Y43A monovalent Fc fusion) (Fc fusion)
chain: B2 chain with Y43A
notes: also called IL-2Rα Y43A; not shown: Fc chain fused to the Sushi variant, its linker and orientation, and the partner Fc chain of the monovalent heterodimer
B4: P-0753 (IL-2RαSushi R36A monovalent Fc fusion) (Fc fusion)
chain: B2 chain with R36A
notes: also called IL-2Rα R36A; not shown: Fc chain fused to the Sushi variant, its linker and orientation, and the partner Fc chain of the monovalent heterodimer
B5: P-0752 (IL-2RαSushi L42G monovalent Fc fusion) (Fc fusion)
chain: B2 chain with L42G
notes: also called IL-2Rα L42G; not shown: Fc chain fused to the Sushi variant, its linker and orientation, and the partner Fc chain of the monovalent heterodimer

Each binder was assayed against P-0153 (IL-15/IL-15RαSushi+ Fc fusion protein) (assay: ELISA, P-0153 coated, biotinylated peptide titrated, Streptavidin-HRP).
P-0153 (IL-15/IL-15RαSushi+ Fc fusion protein), sequence (chain, as listed by the source, chain 1 of 2): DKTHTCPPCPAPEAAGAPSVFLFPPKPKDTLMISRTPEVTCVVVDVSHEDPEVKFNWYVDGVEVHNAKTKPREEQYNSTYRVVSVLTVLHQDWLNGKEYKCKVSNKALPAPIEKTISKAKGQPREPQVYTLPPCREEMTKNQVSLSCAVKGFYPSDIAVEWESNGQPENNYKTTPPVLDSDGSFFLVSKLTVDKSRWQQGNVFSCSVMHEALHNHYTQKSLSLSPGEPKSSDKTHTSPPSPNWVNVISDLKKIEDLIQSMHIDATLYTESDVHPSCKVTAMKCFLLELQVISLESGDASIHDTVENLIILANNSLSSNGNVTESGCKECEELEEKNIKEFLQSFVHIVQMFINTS
P-0153 (IL-15/IL-15RαSushi+ Fc fusion protein), sequence (chain, as listed by the source, chain 2 of 2): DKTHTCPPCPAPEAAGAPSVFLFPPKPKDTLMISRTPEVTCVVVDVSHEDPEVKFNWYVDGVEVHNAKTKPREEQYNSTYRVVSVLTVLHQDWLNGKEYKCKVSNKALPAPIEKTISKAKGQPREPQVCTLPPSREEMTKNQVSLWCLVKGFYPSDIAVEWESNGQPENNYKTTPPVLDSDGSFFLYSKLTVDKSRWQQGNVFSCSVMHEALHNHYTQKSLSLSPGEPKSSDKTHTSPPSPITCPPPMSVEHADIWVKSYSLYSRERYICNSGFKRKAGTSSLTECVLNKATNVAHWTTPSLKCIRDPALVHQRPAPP
Description: The five peptides, L01 to L05 (SEQ ID NO: 97-101) in Table 19 were synthesized and assessed for their binding to IL-15 in ELISA format. […] Streptavidin-HRP complex at the manufacturer's recommended concentration was added and signal was developed by TMB substrate.

Row | Binder | binding result
1 | B1 | binds

These binders were tested against T1, P-0689 (IL-2 Fc fusion) (Homo sapiens (Human), UniProt P0DOX5 223-448 = IgG part) (assay: ELISA, IL-2RαSushi Fc fusion coated, P-0689 titrated, biotin anti-IL2 antibody and Avidin-HRP).
T1 construct: Monovalent IL-2 S125I Fc fusion; also called IL-2 S125I monovalent Fc fusion protein; monovalent wild-type IL-2 Fc fusion protein
Description: IL-2Rα variants were designed to reduce binding to IL-2 by incorporating mutations at residues interacting IL-2 so that the D3 moiety would readily diffuse away upon in vivo proteolysis. Three exemplary IL-2RαSushi variants (SEQ ID NOS: 267-269) were expressed as monovalent Fc fusion proteins corresponding to P-0751 (Y43A), P-0752 (L42G), and P-0753 (R36A), respectively. The three IL-2RαSushi variant Fc fusions were assessed for the impacts of individual mutations on binding to IL-2 in ELISA in comparison to their wild-type IL-2RαSushi counterpart fusion referred to as P-0757.
Briefly, IL-2RαSushi variant monovalent Fc fusion proteins was coated onto the wells of Nunc Maxisorp 96-well microplates at 1 μg/well. […] Following a one-hour incubation at room temperature, 100 μl/well of biotin anti-IL2 antibody clone B33-2 (BD biosciences) at 1 μg/ml were added to each well and incubated at room temperature for 1 hour. Subsequently, 100 μl/well of Avidin-HRP (BioLegend) at 1:500 dilution was added to each well and incubated for 30 min. Finally, 100 μl TMB substrate was added to each well; the plate was developed at room temperature, and 100 μl/well of stop solution was added. Absorbance was determined at 450 nm and curves were fit using Prism software (GraphPad).

Row | Binder | EC50 | EC50 Fold change vs w/t IL-2Rα
2 | B2 | 0.26 nM | 1 fold
3 | B3 | 2.1 nM | 8.1 fold
4 | B4 | 90 nM | 346 fold
5 | B5 | 9.2 nM | 35 fold

— patent US20230093155A1 (CUGENE, published 2023)
